From patent US20200283525A1 (published 2020)
Positions count from the first letter of the chain named.

B1: 9D9 DMAb original (antibody)
chain 1: EAKLQESGPVLVKPGASVKMSCKASGYTFTDYYMNWVKQSHGKSLEWIGVINPYNGDTSYNQKFKGKATLTVDKSSSTAYMELNSLTSEDSAVYYCARYYGSWFAYWGQGTLITVSTAKTTPPSVYPLAPGCGDTTGSSVTLGCLVKGYFPESVTVTWNSGSLSSSVHTFPALLQSGLYTMSSSVTVPSSTWPSQTVTCSVAHPASSTTVDKKLEPSGPISTINPCPPCKECHKCPAPNLEGGPSVFIFPPNIKDVLMISLTPKVTCVVVDVSEDDPDVQISWFVNNVEVHTAQTQTHREDYNSTIRVVSTLPIQHQDWMSGKEFKCKVNNKDLPSPIERTISKIKGLVRAPQVYILPPPAEQLSRKDVSLTCLVVGFNPGDISVEWTSNGHTEENYKDTAPVLDSDGSYFIYSKLNMKTSKWEKTDSFSCNVRHEGLKNYYLKKTISRSPGK
chain 2: DIVMTQTTLSLPVSLGDQASISCRSSQSIVHSNGNTYLEWYLQKPGQSPKLLIYKVSNRFSGVPDRFSGSGSGTDFTLKISRVEAEDLGVYYCFQGSHVPYTFGGGTKLEIKRADAAPTVSIFPPSSEQLTSGGASVVCFLNNFYPKDINVKWKIDGSERQNGVLNSWTDQDSKDSTYSMSSTLTLTKDEYERHNSYTCEATHKTSTSPIVKSFNRNEC
B2: 9D9 DMAb mod #2 (antibody)
chain 1: B1 chain 1 with I113V, T117S
chain 2: B1 chain 2
B3: 9D9 DMAb mod #3 (antibody)
chain 1: B1 chain 1 with A2V, K3Q, E6Q
chain 2: B1 chain 2
B4: 9D9 standard (antibody)
chain 1: B1 chain 1
chain 2: B1 chain 2
B5: 9D9 DMAb mod #4 (antibody)
chain 1: B1 chain 1 with A2V, K3Q, E6Q, I113V, T117S
chain 2: B1 chain 2

Experiments:
[1] = biological target: mouse CTLA-4 protein (mouse, UniProt P09793 36-161); assay: ELISA
[2] = biological target: Mouse CTLA4 (mouse, UniProt P09793 36-161); assay: ELISA

Binder | IC50 [1] | IC50 [2]
B1 | 0.0434 µg/mL | 
B2 | 0.0409 µg/mL | 
B3 | 0.0361 µg/mL | 
B4 |  | 0.0442 µg/mL
B5 | 0.0367 µg/mL | 
